The values that follow come from patent US5889153A, “Protein or polypeptide, method for producing the same and intermediate compound therefor” (Hisamitsu Pharmaceutical Co., Inc., priority 1994, dated 1999).

In data set [1] the test system is blood glucose. Briefly: pharmacological effect of modified insulin: blood glucose value after intravenous administration. The format is in vivo. To be noted: about 0.5 U intravenously, normal rat.
Source text: Then, at prescribed intervals of time, venous blood was sampled to measure the insulin concentration in blood and blood glucose value at each time point.
Data set [2] can be described thus: in-vivo behaviors of modified SOD: SOD concentration in blood after intravenous administration. More on the design: species or system rat. The following applies: about 5,000 U intravenously; for in-vivo behaviors (SOD concentration in blood): urethane-anesthetized rat or rat with ligated renal artery.
Source text: About 5,000 U p-nitrophenyl formate-activated polyethyleneglycol-monocholesterolether (compound C)-modified or non-modified SOD were intravenously administered to an urethane-anesthetized rat or a rat of which only the renal artery was ligated after urethane anesthesia. Then, at prescribed intervals of time, venous blood was sampled to measure the SOD concentration in blood at each time point.
Data set [3] relates to acute gastric ulcer. Briefly: pharmacological effect of modified SOD: water immersion stress ulcerative model. The format is in vivo. To be noted: 10,000 U, rat, compared with non-modified SOD. As for the experimental part: To a rat, 10,000 U p-nitrophenyl formate-activated polyethyleneglycol-monocholesterolether (compound C)-modified or non-modified SOD were administered. Then, an acute gastric ulcer was caused in accordance with the method for preparing a water immersion stress ulcerative model, and the effect inhibiting generation of ulcer at this point was investigated.

A short description of data set [4]: water-solubility of reactive PEG derivative. The class given is physicochemical. To be noted: 0.025 mM Na2B4O7.10H2O, pH 9.2, given as the reason for insufficient modification. The procedure: After dissolving bovine-derived insulin (6.0 mg) in 0.025 mM Na2 B4 O7.10H2 O (pH: 9.2) in an amount of 200 ml, p-nitrophenyl formate-activated polyethyleneglycolmono-cholesterolether (compound A), N-succinimide-activated polyethyleneglycol-monocholesterolether (compound B), p-nitrophenyl formate-activated polyethyleneglycol-mono-cholesterolether (compound C), cyanulchloride-activated polyethyleneglycol-monocholesterolether (compound D), double-type cyanulchloride-activated polyethyleneglycol-monocholesterolether (compound E), and p-nitrophenyl formate-activated polyethyleneglycol-monocholosterolether (compound F) obtained in Example 1 were respectively added in an amount of 2.0 nmol, and the mixtures were stirred at the room temperature for five hours. The resultant mixtures were purified through gel filtration by the use of Sephadex G-75 (made by Pharmacia Company). The target fraction was desalted and concentrated through ultrafiltration (made by Pharmacia Company), thereby obtaining the target aqueous solution (1.8 mg/ml). In the case of p-nitrophenyl formate-activated polyethylene-glycol-monocholesterolether (compoundA), the target modification was insufficient. […] In the case of p-nitrophenyl formate-activated polyethyleneglycol-monocholesterolether (compound F) also, the chemical modification was not sufficient. This is considered to be due to stereo-hindrance.

For insulin [non-modified insulin], in data set [1], the “pharmacological effect (blood glucose value)” value is given as “identical pharmacological effects”.

As to “modified SOD: bovine-derived Cu, Zn-SOD modified with p-nitrophenyl formate-activated polyethyleneglycol-monocholesterolether (compound C), Example 3”, in data set [2] (rat), the glomerular filtration entry is “exempt from glomerular filtration” and the half-life in blood result was “extended”. Further, the “in-vivo behaviors (SOD concentration in blood)” value in data set [2] is reported as “largely improved”. Besides, the “effect inhibiting generation of ulcer” value in data set [3] is reported as “production of an ulcer is inhibited”.

With “non-modified SOD: bovine-derived Cu, Zn-SOD (Superoxide Dismutase), not modified”, the “in-vivo behaviors (SOD concentration in blood)” value in data set [2] is reported as “clearly improved”.

On to “p-nitrophenyl formate-activated polyethylene-glycolmonocholesterolether [compound A]”, for which the water-solubility result in data set [4] is given as “low water-solubility”.
